According to US20120172306A1, “Use of HASF as a Protective Agent Against Ischemic Tissue Damage” (Duke University, priority 2009, published 2012):

Tests used:
[1] = system: PKC, Raf, ERK 1/2, PDK1 phosphorylation in adult rat cardiomyocytes; test: Western blot analysis of signaling protein phosphorylation (PKC/ERK pathway); type: cell-based
Protocol: FIG. 3A is a photograph of an electrophoretic gel. HASF activates the PKC pathway. A. Western blots analysis for various signaling proteins. Serum-starved adult rat cardiomyocytes were stimulated with 100 nM HASF recombinant protein for various time courses. Cell lysate was collected and the proteins were resolved by SDS-PAGE. Insulin from bovine pancreas was used as a positive control. min: minutes of treatment.
FIG. 3B is a photograph of an immunoblot. Serum-starved adult rat cardiomyocytes were pre-treated with 3 μM PKC inhibitors BIM, Gö6976, or Gö6983 for 30 minutes, then stimulated with 100 nM HASF recombinant protein for 5-10 min and cells were harvested. Total cell lysates were used to analyze the levels of ERK1/2 phosphorylation by western blot analysis.
FIG. 4A is a photograph of an immunoblot. Western blot analysis for PKC E and PKC delta phosphorylation on total cell lysates from serum-starved adult rat cardiomyocytes stimulated with 100 nM HASF recombinant protein at 5 and 30 min. HASF b1 and b2 represent different batches of recombinant protein. PMA was used as positive control.
FIG. 4B is a photograph of an immunoblot. Western blot analysis for ERK1/2 phosphorylation on total cell lysates from adult rat cardiomyocytes pre-treated with 10 pM PKC epsilon translocation inhibitor peptide for 20 min, then 100 nM HASF recombinant protein was added for 5 min or 10 min.
FIGS. 8A-B are photographs of immunoblots. Western blot analysis for PKC a/b and PKC theta phosphorylation on total cell lysates from serum-starved adult rat cardiomyocytes stimulated with 100 nM HASF recombinant protein for the indicated times. HASF batch 1 and 2 represent different batches of recombinant protein. PMA was used as positive control.
Rabbit polyclonal antibodies for phospho-pan PKC, phospho-ERK1/2, phospho-raf, phosphor-PDK1, total Akt were obtained from Cell Signaling Tech. Rabbit polyclonal antibody for phospho-PKC epsilon, phospho-Bad, and GAPDH was obtained from Abeam. HRP-conjugated goat anti-rabbit secondary antibody was obtained from Cell Signaling Tech.

[2] = system: rat myocardial infarction; test: In vivo ischemia/reperfusion injury, infarct size (TTC/Evans Blue); conditions: 1 μg intramyocardial injection, 30 min ischemia, 24 h reperfusion
Protocol: FIG. 5A is a series of photographs and a bar graph showing infarct area. Rats were randomly divided into PBS control group and HASF injected group, n=10 for each group. The reperfusion injury model was achieved by 30 min coronary ligation with the immediate injection of vehicle PBScontrol or 1 μg of […] recombinant protein into the myocardium area below ligation suture, followed by loosening of the ligation suture to achieve reperfusion injury. […] The mean of % of infarct area for all sections of each heart was calculated blindly for comparisons using ImageJ computer software. Representative photos from each group are shown.
Female Sprague-Dawley rats were used for all in vivo experiments. A midsternal thoracotomy was performed to expose the anterior surface of the heart after anesthesia. […]
For analysis of infarct size, 24 h after reperfusion, the LAD was re-ligated and ˜300 μl of 1% Evans Blue in PBS (pH 7.4) was retrogradely infused into the heart in a 2-3 min period to delineate the non-ischemic area. […] Area at risk (AAR) was calculated as the left ventricular total area excluding Evans Blue dye positive area, and % infarct area was calculated as the % of infarct area/AAR. The mean of % of infarct area for all sections of each heart was calculated blindly for comparisons using ImageJ computer software, with 10 rats in each group.

[3] = system: rat myocardial infarction, peri-infarct region; test: In vivo ischemia/reperfusion injury, TUNEL staining; conditions: 1 μg intramyocardial, 30 min ischemia/24 h reperfusion
Protocol: FIG. 5B is a series of photographs and a bar graph showing TUNEL staining in control or HASF injected animals from groups described above to detect in vivo apoptosis of cardiomyocytes. Serial cyrosections of 5 μm thick were made immediately below the ligation area, 10 sections for each heart were analyzed, with N=8 rats per group. Sections were counterstained with hematoxylin. Total number of dark-brown color stained apoptotic nuclei were counted and added up blindly in 10 randomly taken fields within the peri-infarct region in each group.
Female Sprague-Dawley rats were used for all in vivo experiments. A midsternal thoracotomy was performed to expose the anterior surface of the heart after anesthesia. The proximal left […] coronary artery (LAD) was identified and a 6.0 suture (Ethicon) was placed around the artery and surrounding myocardium. […]
For TUNEL staining (DeadEnd Colometric TUNEL System, Promega) after 30 min ischemia/24 h reperfusion, serial cyrosections of 5 μm thick were made immediately below the ligation area, 10 sections for each heart were analyzed, with 8 rats in each group. […] Total number of dark-brown color stained apoptotic nuclei were counted and added up blindly in 10 randomly taken fields within the peri-infarct region in each group.

[4] = 100 nM, within 5-10 minutes of treatment

B1: HASF: Hypoxia regulated Akt MSC Factor, secreted protein encoded by C3orf58; recombinant human protein without N-signal sequence, SEQ ID NO:1 or 2 (protein, UniProt Q8NDZ4 36-430, looked up)
Divergent protein kinase …: LASWQRNELTDRRFLQLNKCPACFGTSWCRRFLNGQVVFEAWGRLRLLDFLNVKNVYFAQYGEPREGGRRRVVLKRLGSQRELAQLDQSICKRATGRPRCDLLQAMPRTEFARLNGDVRLLTPEAVEGWSDLVHCPSQRLLDRLVRRYAETKDSGSFLLRNLKDSERMQLLLTLAFNPEPLVLQSFPSDEGWPFAKYLGACGRMVAVNYVGEELWSYFNAPWEKRVDLAWQLMEIAEQLTNNDFEFALYLLDVSFDNFAVGPRDGKVIIVDAENVLVADKRLIRQNKPENWDVWYESKFDDCDKEACLSFSKEILCARATVDHNYYAVCQNLLSRHATWRGTSGGLLHDPPSEIAKDGRLEALLDECANPKKRYGRFQAAKELREYLAQLSNNVR
modifications: 6xHis tag
activity (phosphorylation) of the other PKC isoforms tested (PKC α/β, σ, σ/λ, θ) ([1]; 100 nM HASF): did not affect | phosphorylation of PKCe ([1]; 100 nM HASF, 5 and 30 min): increased the phosphorylation of PKCe selectively | phosphorylation of PDK1 ([1]; 100 nM, 0-60 minutes): not increased | phosphorylation of ERK 1/2 [1, 4]: increased dramatically | phosphorylation of PKC [1, 4]: increased dramatically | phosphorylation of Raf [1, 4]: increased dramatically | reduction in the infarct size [2]: ~58% | reduction of the number of TUNEL positive nuclei [3]: ~69%
